{"source": "paper PMC3564912", "about": "“Single Particle Electron Microscopy Analysis of the Bovine Anion Exchanger 1 Reveals a Flexible Linker Connecting the Cytoplasmic and Membrane Domains” (PLoS ONE, 2013)", "proteins": {"B1": {"name": "bovine anion exchanger 1 (AE1) (natural protein, UniProt Q9XSW5 1-930, looked up)", "chain": "MGDPEEYEDQLEETLEQKEYEDHDSVSIPMEEAEGDTIQEEEAEARVNQLTDTDYHTTSQHPETHKVCVQLRELVMDEKNQEIQWMETARWVGLEENLGKDGIWGRPHLPYLNFWSLLELQKAFAKGTVLLDLPGKSLAEVANQLLDRFTFEGQIQPDDQDNLLRVLLLKHSHASDMEALGGVKPVVVTHSGDPSEPLLPQHPSLETELFCEQGEGSTRGHAPEILGKSPQDWEATLVLVGCARFLKRPVLGFVRLKEPMEPEPKPEGSEEPAVPVRFLIVLLGPEGPNINYTQLGRAAATLMSERVFWNDAYLAQSKETLVQSLEGFLDCSLVLPPLDAPSEKALLSLVPVQKELLRRRYLPSPAKPDPSIFKDLDVKKGPGDTPEDPLQRTGKLFGGLVRDIRRRYPRYLSDITDALSPQVLSAIIFIYFAALTPAITFGGLLGDKTENMIGVSELLLSTALQGIIFSLLGAQPLLVLGFSGPLLVFEEAFYSFCQTNNLEYIVGRVWIGFWLILLVVLVVAFEGSFLVRFISRYTQEIFSFLISLIFIYETFYKLVTIFQDHPLQKNYDHDVLTTPKPQAALPNTALLSLVLMAGTFFLAMMLRKFKNSSYFPGKLRRIIGDFGVPISILIMVMVDALIQDTYTQKLSVPEGLSVSNPTERDWLIHPLGIRVEFPIWMMFASALPALLVFILIFLESQITTLIISKPERKMVKGSGFHLDLLLIIGMGGVGAIFGMPWLSATTVRTVTHANALTVMSKDSTPGAVSQIQGVKEQRISGLLVAVLVGVSILMGPVLRHIPLAVLFGIFLYMGVTSLSGIQLFDRVLLLLKPRKYYPEVPYARRVKTWRMHLFTITQIVCLVVLWVVRSIKQISLALPFILILTVPLRRFLLPFIFRDMELKLLDADDVKLNLDEQNGQDEYDEVAMPV", "notes": "anion exchanger 1 (AE1, band 3), bovine, native protein from erythrocyte membranes; monomer about 100 kDa; Solubilised in dodecyl maltoside (0.03% DDM in the final buffer); The dimer fraction from size exclusion was used; also called bovine AE1; full-length AE1 dimer; source: purified from bovine erythrocyte membranes (ghosts; DDM extraction, DE-52 ion exchange, Superose 6 size exclusion)"}}, "target": "the molecule itself", "test": "SEC; Superose 6 10/300, 50 mM Tris-HCl pH 7.5, 0.03% DDM, 0.15 M NaCl; sample after ion exchange and the dimer fraction run again", "data": [{"protein": "B1", "values": [{"measurement": "stoichiometry N", "result": 2}]}]}
